Reference: patent EP4480965A1, “TRANSFERRIN RECEPTOR-BINDING MOLECULES, CONJUGATES THEREOF AND THEIR USES TO PREVENT OR TREAT CNS DISEASES” (Vect-Horus, priority 2023, dated 2024)

B1: C5-hFc-siSOD1m-5'VP (protein, part only; not given: Fc knob and hole arms, siRNA, part only)
chain, part: EVQLVESGGGVVQPGGSLKLSCVASGTDFSINFIRWYRQAPGKQREFVAGFTATGNTNYADSMKGRFTISRDNTKNAVYLQIDSLKPEDTAVYYCYMLDKWGQGTQVTVSSAAAEQKLISEEDLNGAAHHHHHHGS
B2: B8h1-NT(8-13) (protein, part only; not given: nothing essential, part only)
chain, part: EVQLVESGGGVVQPGGSLRLSCAASGEIFSINFMRWYRQAPGKGLEWVAGFTRDGSTNYPDSVKGRFTISRDNAKNTVYLQMNSLRPEDTAVYYCYMLDTWGQGTQVTVSSHHHHHHGGGGSGGGGS

Tests used:
[1] = target: murine TfR expressed by murine neuroblastoma Neuro-2a cells (mouse) (UniProt Q62351); experiment: cell-based or functional assay
[2] = target: mouse transferrin receptor fused to EGFP, expressed on CHO cells (mouse) (UniProt Q62351); experiment: cell-based assay on mTfR, apparent Kd
Sequence of mouse transferrin receptor fused to EGFP, expressed on CHO cells (mouse) (Q62351 whole entry, the tested form may be a part): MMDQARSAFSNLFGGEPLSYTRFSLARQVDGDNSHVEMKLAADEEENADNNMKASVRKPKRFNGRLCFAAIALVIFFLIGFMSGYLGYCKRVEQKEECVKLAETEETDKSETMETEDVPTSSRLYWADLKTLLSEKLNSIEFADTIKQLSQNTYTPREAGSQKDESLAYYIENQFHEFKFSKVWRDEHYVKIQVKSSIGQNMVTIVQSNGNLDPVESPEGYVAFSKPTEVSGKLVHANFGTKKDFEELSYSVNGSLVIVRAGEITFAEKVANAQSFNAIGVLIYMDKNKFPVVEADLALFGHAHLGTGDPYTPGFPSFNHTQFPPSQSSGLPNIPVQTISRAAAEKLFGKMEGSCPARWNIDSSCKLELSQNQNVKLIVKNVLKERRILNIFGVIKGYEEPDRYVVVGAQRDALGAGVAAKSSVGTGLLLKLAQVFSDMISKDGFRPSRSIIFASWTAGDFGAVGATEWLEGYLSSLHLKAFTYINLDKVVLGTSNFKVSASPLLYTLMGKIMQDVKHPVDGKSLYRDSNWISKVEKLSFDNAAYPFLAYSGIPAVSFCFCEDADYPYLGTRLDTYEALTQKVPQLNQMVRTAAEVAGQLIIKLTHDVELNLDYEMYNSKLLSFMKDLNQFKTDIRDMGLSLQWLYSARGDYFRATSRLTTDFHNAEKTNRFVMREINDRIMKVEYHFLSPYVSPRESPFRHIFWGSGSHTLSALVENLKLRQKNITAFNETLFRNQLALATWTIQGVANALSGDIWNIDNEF

Sequence of murine TfR expressed by murine neuroblastoma Neuro-2a cells (mouse) (Q62351 whole entry, the tested form may be a part): as above

Row | mean IC50 of mSOD1 mRNA downregulation, free uptake on Neuro-2a cells [1] | Kd [2] | Binder
1 | 8.7 nM |  | B1
2 |  | 2.8 nM | B2
